{"source": "patent US20060134719", "proteins": {"B1": {"name": "purified signal-FLAG-ARS-extracellular enzyme after the treatment with trypsin beads (protein)", "chain": "STQGFHVDHTAELRGIRWTSSLRRETSDYHRTLTPTLEALFVSSFQKTELEASCVGCSVLNYRDGNSSVLVHFQLHFLLRPLQTLSLGLEEELLQRGIRARLREHGISLAAYGTIVSAELTGRHKGPLAERDFKSGRCPGNSFSCGNSQCVTKVNPECDDQEDCSDGSDEAHCECGLQPAWRMAGRIVGGMEASPGEFPWQASLRENKEHFCGAAIINARWLVSAAHCFNEFQDPTKWVAYVGATYLSGSEASTVRAQVVQIVKHPLYNADTADFDVAVLELTSPLPFGRHIQPVCLPAATHIFPPSKKCLISGWGYLKEDFLVKPEVLQKATVELLDQALCASLYGHSLTDRMVCAGYLDGKVDSCQGDSGGPLVCEEPSGRFFLAGIVSWGIGCAEARRPGVYARVTRLRDWILEATTKASMPLAPTMAPAPAAPSTAWPTSPESPVVSTPTKSMQALSTVPLDWVTVPKLQGIFGAER"}}, "key": {"[1]": {"biological_target": "T1, vasoactive intestinal peptide (VIP), P01282", "T1 chain": "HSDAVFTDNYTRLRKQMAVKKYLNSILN"}, "[2]": {"biological_target": "neuropeptide Y (NPY), P01303"}, "[3]": {"biological_target": "T2, α-melanocyte stimulating hormone (α-MSH), P01189 (not fully specified)", "T2 chain": "SYSMEHFRWGKPV"}, "[4]": {"biological_target": "T3, C-type natriuretic peptide 22 (CNP 22), P23582", "T3 chain": "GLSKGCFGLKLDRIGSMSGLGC"}, "[5]": {"biological_target": "T4, A-type natriuretic peptide (ANP), P01160", "T4 chain": "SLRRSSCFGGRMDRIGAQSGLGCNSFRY"}, "[6]": {"biological_target": "T5, melanin-concentrating hormone (MCH), P20382", "T5 chain": "DFDMLRCMLGRVYRPCWQV"}}}
{"protein": "B1", "values": [{"measurement": "cleavage of the substrate peptide, HPLC analysis after reaction at 37° C. for 16 hours", "setting": "[1]", "result": "the enzyme sample selectively cleaved VIP, NPY, ANP, CNP, α-MSH, and MCH"}, {"measurement": "cleavage of the substrate peptide, HPLC analysis after reaction at 37° C. for 16 hours", "setting": "[2]", "result": "the enzyme sample selectively cleaved VIP, NPY, ANP, CNP, α-MSH, and MCH"}, {"measurement": "cleavage of the substrate peptide, HPLC analysis after reaction at 37° C. for 16 hours", "setting": "[3]", "result": "the enzyme sample selectively cleaved VIP, NPY, ANP, CNP, α-MSH, and MCH"}, {"measurement": "cleavage of the substrate peptide, HPLC analysis after reaction at 37° C. for 16 hours", "setting": "[4]", "result": "the enzyme sample selectively cleaved VIP, NPY, ANP, CNP, α-MSH, and MCH"}, {"measurement": "cleavage of the substrate peptide, HPLC analysis after reaction at 37° C. for 16 hours", "setting": "[5]", "result": "the enzyme sample selectively cleaved VIP, NPY, ANP, CNP, α-MSH, and MCH"}, {"measurement": "cleavage of the substrate peptide, HPLC analysis after reaction at 37° C. for 16 hours", "setting": "[6]", "result": "the enzyme sample selectively cleaved VIP, NPY, ANP, CNP, α-MSH, and MCH"}]}
